# T1: N(A2B2)A-avi-His (biotinylated at the avi tag)
# T1 construct: also called biotinylated N(A2B2)A-avi-His
# T1 chain: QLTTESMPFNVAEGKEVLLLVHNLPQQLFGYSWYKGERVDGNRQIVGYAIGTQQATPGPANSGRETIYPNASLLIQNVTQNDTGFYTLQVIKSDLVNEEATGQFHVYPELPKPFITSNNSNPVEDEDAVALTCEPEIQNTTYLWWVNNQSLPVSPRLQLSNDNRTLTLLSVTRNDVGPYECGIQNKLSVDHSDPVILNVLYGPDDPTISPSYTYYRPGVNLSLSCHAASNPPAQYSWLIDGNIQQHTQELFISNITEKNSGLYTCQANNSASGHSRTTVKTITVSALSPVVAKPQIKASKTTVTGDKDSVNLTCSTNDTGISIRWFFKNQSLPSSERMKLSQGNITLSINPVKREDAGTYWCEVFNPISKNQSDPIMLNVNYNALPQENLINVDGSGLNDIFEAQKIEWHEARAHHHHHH
# T2: Hu N(A2-B2)A-avi-His (human, biotinylated at the avi tag (Example 2.2))
# T2 construct: also called hu N(A2-B2)A-avi-His B; CEACAM5-based antigen
# T2 chain: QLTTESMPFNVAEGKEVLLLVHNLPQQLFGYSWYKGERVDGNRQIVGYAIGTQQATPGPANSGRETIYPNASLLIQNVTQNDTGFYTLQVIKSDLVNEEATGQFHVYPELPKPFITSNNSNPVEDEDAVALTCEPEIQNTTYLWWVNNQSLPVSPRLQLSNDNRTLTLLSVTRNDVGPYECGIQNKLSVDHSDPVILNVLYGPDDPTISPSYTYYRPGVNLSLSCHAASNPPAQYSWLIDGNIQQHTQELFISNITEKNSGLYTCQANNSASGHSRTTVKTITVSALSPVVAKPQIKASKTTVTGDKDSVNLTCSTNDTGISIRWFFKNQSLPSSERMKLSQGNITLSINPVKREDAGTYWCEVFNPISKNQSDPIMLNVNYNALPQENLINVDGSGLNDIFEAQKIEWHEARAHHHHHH
# Target: T1, N(A2B2)A-avi-His
# Assay: SPR, ProteOn, antigen on NLC chip, bispecific IgG as analyte
# Procedure: About 2000, 1000, 500, and 250 RU of biotinylated N(A2B2)A-avi-His were immobilized on 4 channels of a Streptavidin-coated NLC chip in vertical orientation. As a control for non-specific binding, 2000 RU of biotinylated NA(B2)A-avi-His protein was immobilized on channel 5. For the determination of the affinity (KD) of the purified bispecific constructs, injection direction was changed to horizontal orientation. […] Buffer (PBST) was injected along the sixth channel to provide an “in-line” blank for referencing. Regeneration was performed with 10 mM glycine pH 1.5 for 20 s at 50 ul/min (vertical orientation).
# Association rate constants (kon) and dissociation rate constants (koff) were calculated using a simple one-to-one Langmuir binding model in ProteOn Manager v3.1 software by simultaneously fitting the association and dissociation sensorgrams. The equilibrium dissociation constant (KD) was calculated as the ratio koff/kon.
Binder,Kd,koff,kon
"bispecific CEA (P005.102-combo2)-CD28 (SA Variant 15) 1+1 IgG (bispecific antibody, knob-into-hole, crossmab, PG-LALA) heavy 1: EIVLTQSPATLSLSPGERATLSCRASSSVTYIHWYQQKPGQAPRSWIYATSNLASGIPARFSGSGSGTDFTLTISSLEPEDFAVYYCQHWSSKSPTFGQGTKLEIKSSASTKGPSVFPLAPSSKSTSGGTAALGCLVKDYFPEPVTVSWNSGALTSGVHTFPAVLQSSGLYSLSSVVTVPSSSLGTQTYICNVNHKPSNTKVDKKVEPKSCDKTHTCPPCPAPEAAGGPSVFLFPPKPKDTLMISRTPEVTCVVVDVSHEDPEVKFNWYVDGVEVHNAKTKPREEQYNSTYRVVSVLTVLHQDWLNGKEYKCKVSNKALGAPIEKTISKAKGQPREPQVCTLPPSRDELTKNQVSLSCAVKGFYPSDIAVEWESNGQPENNYKTTPPVLDSDGSFFLVSKLTVDKSRWQQGNVFSCSVMHEALHNHYTQKSLSLSP light 1: EVQLLESGGGLVQPGGSLRLSCAASGFYFSDYYMNWVRQAPGKGLEWLGVISNKANAYTTEYSASVKGRFTISRDKSKNTLYLQMNSLRAEDTATYYCTRDRGIRFQFDYWGQGTTVTVSSASVAAPSVFIFPPSDEQLKSGTASVVCLLNNFYPREAKVQWKVDNALQSGNSQESVTEQDSKDSTYSLSSTLTLSKADYEKHKVYACEVTHQGLSSPVTKSFNRGEC heavy 2: not shown light 2: not shown",0.08 nM,1.85e-05 s⁻¹,225000 M⁻¹ s⁻¹
"bispecific CEA (P006.038-combo2)-CD28 (SA Variant 15) 1+1 IgG (bispecific antibody, knob-into-hole, crossmab, PG-LALA) heavy 1: EIVLTQSPATLSLSPGERATLSCRASSSVTYIHWYQQKPGQAPRSWIYATSNLASGIPARFSGSGSGTDFTLTISSLEPEDFAVYYCQHWSSVPPTFGQGTKLEIKSSASTKGPSVFPLAPSSKSTSGGTAALGCLVKDYFPEPVTVSWNSGALTSGVHTFPAVLQSSGLYSLSSVVTVPSSSLGTQTYICNVNHKPSNTKVDKKVEPKSCDKTHTCPPCPAPEAAGGPSVFLFPPKPKDTLMISRTPEVTCVVVDVSHEDPEVKFNWYVDGVEVHNAKTKPREEQYNSTYRVVSVLTVLHQDWLNGKEYKCKVSNKALGAPIEKTISKAKGQPREPQVCTLPPSRDELTKNQVSLSCAVKGFYPSDIAVEWESNGQPENNYKTTPPVLDSDGSFFLVSKLTVDKSRWQQGNVFSCSVMHEALHNHYTQKSLSLSP light 1: EVQLLESGGGLVQPGGSLRLSCAASGFTFSDYEMNWVRQAPGKGLEWLGFISNKANAYTTEYSASVKGRFTISRDKSKNTLYLQMNSLRAEDTATYYCTRDRGIRFGFDYWGQGTTVTVSSASVAAPSVFIFPPSDEQLKSGTASVVCLLNNFYPREAKVQWKVDNALQSGNSQESVTEQDSKDSTYSLSSTLTLSKADYEKHKVYACEVTHQGLSSPVTKSFNRGEC heavy 2: not shown light 2: not shown",3.66 nM,0.000698 s⁻¹,191000 M⁻¹ s⁻¹
"bispecific CEA (P006.038-combo1)-CD28 (SA Variant 15) 1+1 IgG (bispecific antibody, knob-into-hole, crossmab, PG-LALA) heavy 1: EIVLTQSPATLSLSPGERATLSCRASSSVTYIHWYQQKPGQAPRSWIYATSNLASGIPARFSGSGSGTDFTLTISSLEPEDFAVYYCQHWSSVPPTFGQGTKLEIKSSASTKGPSVFPLAPSSKSTSGGTAALGCLVKDYFPEPVTVSWNSGALTSGVHTFPAVLQSSGLYSLSSVVTVPSSSLGTQTYICNVNHKPSNTKVDKKVEPKSCDKTHTCPPCPAPEAAGGPSVFLFPPKPKDTLMISRTPEVTCVVVDVSHEDPEVKFNWYVDGVEVHNAKTKPREEQYNSTYRVVSVLTVLHQDWLNGKEYKCKVSNKALGAPIEKTISKAKGQPREPQVCTLPPSRDELTKNQVSLSCAVKGFYPSDIAVEWESNGQPENNYKTTPPVLDSDGSFFLVSKLTVDKSRWQQGNVFSCSVMHEALHNHYTQKSLSLSP light 1: EVQLLESGGGLVQPGGSLRLSCAASGFYFTDYAMNWVRQAPGKGLEWLGVISNKANAYTTEYSASVKGRFTISRDKSKNTLYLQMNSLRAEDTATYYCTRDRGIRFGFDYWGQGTTVTVSSASVAAPSVFIFPPSDEQLKSGTASVVCLLNNFYPREAKVQWKVDNALQSGNSQESVTEQDSKDSTYSLSSTLTLSKADYEKHKVYACEVTHQGLSSPVTKSFNRGEC heavy 2: not shown light 2: not shown",4.48 nM,0.000799 s⁻¹,178000 M⁻¹ s⁻¹
"bispecific CEA (P005.103)-CD28 (SA Variant 15) 1+1 IgG (bispecific antibody, knob-into-hole, crossmab, PG-LALA) heavy 1: EIVLTQSPATLSLSPGERATLSCRASSSVTYIHWYQQKPGQAPRSWIYATSNLASGIPARFSGSGSGTDFTLTISSLEPEDFAVYYCQHWSSISPTFGQGTKLEIKSSASTKGPSVFPLAPSSKSTSGGTAALGCLVKDYFPEPVTVSWNSGALTSGVHTFPAVLQSSGLYSLSSVVTVPSSSLGTQTYICNVNHKPSNTKVDKKVEPKSCDKTHTCPPCPAPEAAGGPSVFLFPPKPKDTLMISRTPEVTCVVVDVSHEDPEVKFNWYVDGVEVHNAKTKPREEQYNSTYRVVSVLTVLHQDWLNGKEYKCKVSNKALGAPIEKTISKAKGQPREPQVCTLPPSRDELTKNQVSLSCAVKGFYPSDIAVEWESNGQPENNYKTTPPVLDSDGSFFLVSKLTVDKSRWQQGNVFSCSVMHEALHNHYTQKSLSLSP light 1: EVQLLESGGGLVQPGGSLRLSCAASGFTFTDYYMNWVRQAPGKGLEWLGFIGNKANAYTTEYSASVKGRFTISRDKSKNTLYLQMNSLRAEDTATYYCTRDRGIRFYFDYWGQGTTVTVSSASVAAPSVFIFPPSDEQLKSGTASVVCLLNNFYPREAKVQWKVDNALQSGNSQESVTEQDSKDSTYSLSSTLTLSKADYEKHKVYACEVTHQGLSSPVTKSFNRGEC heavy 2: not shown light 2: not shown",0.44 nM,0.000112 s⁻¹,257000 M⁻¹ s⁻¹
"bispecific CEA (P006.038)-CD28 (SA Variant 15) 1+1 IgG (bispecific antibody, knob-into-hole, crossmab, PG-LALA) heavy 1: EIVLTQSPATLSLSPGERATLSCRASSSVTYIHWYQQKPGQAPRSWIYATSNLASGIPARFSGSGSGTDFTLTISSLEPEDFAVYYCQHWSSVPPTFGQGTKLEIKSSASTKGPSVFPLAPSSKSTSGGTAALGCLVKDYFPEPVTVSWNSGALTSGVHTFPAVLQSSGLYSLSSVVTVPSSSLGTQTYICNVNHKPSNTKVDKKVEPKSCDKTHTCPPCPAPEAAGGPSVFLFPPKPKDTLMISRTPEVTCVVVDVSHEDPEVKFNWYVDGVEVHNAKTKPREEQYNSTYRVVSVLTVLHQDWLNGKEYKCKVSNKALGAPIEKTISKAKGQPREPQVCTLPPSRDELTKNQVSLSCAVKGFYPSDIAVEWESNGQPENNYKTTPPVLDSDGSFFLVSKLTVDKSRWQQGNVFSCSVMHEALHNHYTQKSLSLSP light 1: EVQLLESGGGLVQPGGSLRLSCAASGFTFTDYYMNWVRQAPGKGLEWLGFIGNKANAYTTEYSASVKGRFTISRDKSKNTLYLQMNSLRAEDTATYYCTRDRGIRFGFDYWGQGTTVTVSSASVAAPSVFIFPPSDEQLKSGTASVVCLLNNFYPREAKVQWKVDNALQSGNSQESVTEQDSKDSTYSLSSTLTLSKADYEKHKVYACEVTHQGLSSPVTKSFNRGEC heavy 2: not shown light 2: not shown",0.22 nM,5.87e-05 s⁻¹,267000 M⁻¹ s⁻¹
"bispecific CEA (P005.103-combo1)-CD28 (SA Variant 15) 1+1 IgG (bispecific antibody, knob-into-hole, crossmab, PG-LALA) heavy 1: EIVLTQSPATLSLSPGERATLSCRASSSVTYIHWYQQKPGQAPRSWIYATSNLASGIPARFSGSGSGTDFTLTISSLEPEDFAVYYCQHWSSISPTFGQGTKLEIKSSASTKGPSVFPLAPSSKSTSGGTAALGCLVKDYFPEPVTVSWNSGALTSGVHTFPAVLQSSGLYSLSSVVTVPSSSLGTQTYICNVNHKPSNTKVDKKVEPKSCDKTHTCPPCPAPEAAGGPSVFLFPPKPKDTLMISRTPEVTCVVVDVSHEDPEVKFNWYVDGVEVHNAKTKPREEQYNSTYRVVSVLTVLHQDWLNGKEYKCKVSNKALGAPIEKTISKAKGQPREPQVCTLPPSRDELTKNQVSLSCAVKGFYPSDIAVEWESNGQPENNYKTTPPVLDSDGSFFLVSKLTVDKSRWQQGNVFSCSVMHEALHNHYTQKSLSLSP light 1: EVQLLESGGGLVQPGGSLRLSCAASGFTFTDYYMNWVRQAPGKGLEWLGFIGNKANAYTTEYSASVKGRFTISRDKSKNTLYLQMNSLRAEDTATYYCTRDRGIRFSFDYWGQGTTVTVSSASVAAPSVFIFPPSDEQLKSGTASVVCLLNNFYPREAKVQWKVDNALQSGNSQESVTEQDSKDSTYSLSSTLTLSKADYEKHKVYACEVTHQGLSSPVTKSFNRGEC heavy 2: not shown light 2: not shown",0.27 nM,3.42e-05 s⁻¹,126000 M⁻¹ s⁻¹
"bispecific CEA (P005.103-combo2)-CD28 (SA Variant 15) 1+1 IgG (bispecific antibody, knob-into-hole, crossmab, PG-LALA) heavy 1: EIVLTQSPATLSLSPGERATLSCRASSSVTYIHWYQQKPGQAPRSWIYATSNLASGIPARFSGSGSGTDFTLTISSLEPEDFAVYYCQHWSSISPTFGQGTKLEIKSSASTKGPSVFPLAPSSKSTSGGTAALGCLVKDYFPEPVTVSWNSGALTSGVHTFPAVLQSSGLYSLSSVVTVPSSSLGTQTYICNVNHKPSNTKVDKKVEPKSCDKTHTCPPCPAPEAAGGPSVFLFPPKPKDTLMISRTPEVTCVVVDVSHEDPEVKFNWYVDGVEVHNAKTKPREEQYNSTYRVVSVLTVLHQDWLNGKEYKCKVSNKALGAPIEKTISKAKGQPREPQVCTLPPSRDELTKNQVSLSCAVKGFYPSDIAVEWESNGQPENNYKTTPPVLDSDGSFFLVSKLTVDKSRWQQGNVFSCSVMHEALHNHYTQKSLSLSP light 1: EVQLLESGGGLVQPGGSLRLSCAASGFYFTDYYMNWVRQAPGKGLEWLGVISNKANAYTTEYSASVKGRFTISRDKSKNTLYLQMNSLRAEDTATYYCTRDRGIRFSFDYWGQGTTVTVSSASVAAPSVFIFPPSDEQLKSGTASVVCLLNNFYPREAKVQWKVDNALQSGNSQESVTEQDSKDSTYSLSSTLTLSKADYEKHKVYACEVTHQGLSSPVTKSFNRGEC heavy 2: not shown light 2: not shown",0.09 nM,1.05e-05 s⁻¹,123000 M⁻¹ s⁻¹

# Target: T2, Hu N(A2-B2)A-avi-His
# Assay: SPR, Biacore T200, antigen amine-coupled on CM5, Fab as analyte
# Source text: Data were double-referenced against the unimmobilized flow cell 1 and a zero concentration of the analyte. The sensorgrams of the analytes were fitted to a simple 1:1 Langmuir interaction model.
row,Binder,Kd
1,"CEA (A5B7) Fab (parental murine antibody) (Fab, V domains shown, Fab; also called P1AE0289) VH: EVKLVESGGGLVQPGGSLRLSCATSGFTFTDYYMNWVRQPPGKALEWLGFIGNKANGYTTEYSASVKGRFTISRDKSQSILYLQMNTLRAEDSATYYCTRDRGLRFYFDYWGQGTTLTVSS VL: QTVLSQSPAILSASPGEKVTMTCRASSSVTYIHWYQQKPGSSPKSWIYATSNLASGVPARFSGSGSGTSYSLTISRVEAEDAATYYCQHWSSKPPTFGGGTKLEIK",0.559 nM
2,"Fab derived from P1AE2166 (Fab, V domains shown, Fab; also called P1AE4137) VH: EVQLLESGGGLVQPGGSLRLSCAASGFTFTDYYMNWVRQAPGKGLEWLGFIGNKANGYTTEYSASVKGRFTISRDKSKNTLYLQMNSLRAEDTATYYCTRDRGLRFYFDYWGQGTTVTVSS VL: EIVLTQSPATLSLSPGERATLSCRASSSVTYIHWYQQKPGSSPKSWIYATSNLASGIPARFSGSGSGTDFTLTISSLEPEDFAVYYCQHWSSKPPTFGQGTKLEIK",11.3 nM
